Results: publication PMC5612953, “Stable MOB1 interaction with Hippo/MST is not essential for development and tissue growth control” (Nature Communications, 2017)
One block for each binder: values may come before it.

B3: recombinant full-length MOB1A(D63V) (natural protein, human, UniProt Q9H8S9 1-216, looked up)
chain: MSFLFSSRSSKTFKPKKNIPEGSHQYELLKHAEATLGSGNLRQAVMLPEGEDLNEWIAVNTVVFFNQINMLYGTITEFCTEASCPVMSAGPRYEYHWADGTNIKKPIKCSAPKYIDYLMTWVQDQLDDETLFPSKIGVPFPKNFMSVAKTILKRLFRVYAHIYHQHFDSVMQLQEEAHLNTSFKHFIFFVQEFNLIDRRELAPLQELIEKLGSKDR
notes: human MOB1A, full length; also called MOB1(D63V); source: E. coli, purified as MOB1A (33-216) (Ni-NTA)

Columns and labels:
[1] = target: T1, unphosphorylated full-length MOB1A(K104E/K105E), recombinant (human, UniProt Q9H8S9 1-216, K104E | K105E); assay: ITC
T1 sequence: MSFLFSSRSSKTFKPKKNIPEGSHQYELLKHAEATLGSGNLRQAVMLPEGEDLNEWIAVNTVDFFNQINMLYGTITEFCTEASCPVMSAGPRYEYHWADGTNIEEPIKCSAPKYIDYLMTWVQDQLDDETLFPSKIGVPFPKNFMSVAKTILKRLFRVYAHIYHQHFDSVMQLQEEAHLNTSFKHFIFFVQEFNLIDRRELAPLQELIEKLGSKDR

[2] = target: T2, phospho-MOB1(K104E/K105E), full length, recombinant (human, UniProt Q9H8S9 1-216, K104E | K105E, phosphorylated in vitro by MST2 (residues 2-308); the paper names Thr12 and Thr35 as the MST1/2 phosphorylation sites of MOB1); assay: ITC; phosphorylated MOB1
T2 sequence: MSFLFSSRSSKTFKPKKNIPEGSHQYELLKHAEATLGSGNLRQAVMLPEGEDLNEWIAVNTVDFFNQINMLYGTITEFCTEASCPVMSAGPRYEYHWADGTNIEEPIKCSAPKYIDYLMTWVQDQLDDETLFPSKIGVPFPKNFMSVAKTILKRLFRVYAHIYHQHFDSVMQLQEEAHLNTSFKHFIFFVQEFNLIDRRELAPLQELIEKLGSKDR

[3] = target: T3, unphosphorylated full-length MOB1A(K104E/K105E), recombinant (human, UniProt Q9H8S9 1-216, K104E | K105E); assay: ITC; 25 °C, ITC200; 25 mM HEPES pH 7.5, 200 mM NaCl, 1 mM EDTA; ~240 μM MOB1A injected (20 x 2 μl) into ~24 μM NDR1, NDR2, LATS1 or LATS2 fragment in the cell; single-site model; conditions: both partners purified
T3 construct: human MOB1A, full length; also called Unphosphorylated MOB1(K104E/K105E); MOB1(K104E/K104E); source: E. coli, purified as MOB1A (33-216) (Ni-NTA)
T3 sequence (looked up): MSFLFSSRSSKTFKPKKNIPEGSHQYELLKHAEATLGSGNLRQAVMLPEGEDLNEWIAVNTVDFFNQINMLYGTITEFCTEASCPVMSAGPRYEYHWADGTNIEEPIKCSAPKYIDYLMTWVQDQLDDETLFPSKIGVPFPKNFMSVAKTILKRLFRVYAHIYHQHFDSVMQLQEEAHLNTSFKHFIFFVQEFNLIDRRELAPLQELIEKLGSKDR

[4] = target: T4, phospho-MOB1(K104E/K105E), full length, recombinant (human, UniProt Q9H8S9 1-216, K104E | K105E, phosphorylated in vitro by MST2 (residues 2-308); the paper names Thr12 and Thr35 as the MST1/2 phosphorylation sites of MOB1); assay: as above; conditions: both partners purified
T4 construct: human MOB1A, full length; source: E. coli, purified (Ni-NTA), then phosphorylated in vitro by MST2 (2-308)
T4 sequence (looked up): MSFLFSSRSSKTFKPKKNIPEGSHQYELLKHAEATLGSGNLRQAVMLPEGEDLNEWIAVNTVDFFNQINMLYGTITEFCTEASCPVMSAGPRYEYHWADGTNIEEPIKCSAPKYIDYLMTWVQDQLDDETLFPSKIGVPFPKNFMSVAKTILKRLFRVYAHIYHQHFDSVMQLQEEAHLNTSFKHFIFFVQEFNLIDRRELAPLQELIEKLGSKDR

[5] = target: T5, non-phosphorylated full-length MOB1A wild-type (human, UniProt Q9H8S9 1-216); assay: as above; conditions: both partners purified
T5 construct: human MOB1A, full length; pET28a vector; also called unphosphorylated full-length MOB1; non-phosphorylated MOB1; source: E. coli, purified as MOB1A (33-216) (Ni-NTA)
T5 sequence (looked up): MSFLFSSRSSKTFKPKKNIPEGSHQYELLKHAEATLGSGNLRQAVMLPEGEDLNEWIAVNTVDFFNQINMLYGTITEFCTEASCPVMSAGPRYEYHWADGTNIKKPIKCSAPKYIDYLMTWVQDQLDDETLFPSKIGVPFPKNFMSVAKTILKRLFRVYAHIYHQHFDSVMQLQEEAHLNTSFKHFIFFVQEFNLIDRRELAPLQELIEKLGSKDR

[6] = target: T6, human MOB1A (residues 33-216) (human, UniProt Q9H8S9 33-216); assay: crystal structure; MOB1A (33-216) and NDR2 (25-88) incubated 1:1 at 4 °C, complex purified on Superdex 200; crystals at 14 °C in 17% PEG 3350, 0.1 M HEPES pH 7.5, 150 mM magnesium chloride; 2.10 Å; conditions: both partners purified
T6 construct: human MOB1A, residues 33-216; modified pET28a vector; a zinc is associated with MOB1 in the structure; also called MOB1 (33-216); MOB1A (33-216); source: E. coli BL21(DE3), purified (Ni-NTA; complex by Superdex 200)
T6 sequence (looked up): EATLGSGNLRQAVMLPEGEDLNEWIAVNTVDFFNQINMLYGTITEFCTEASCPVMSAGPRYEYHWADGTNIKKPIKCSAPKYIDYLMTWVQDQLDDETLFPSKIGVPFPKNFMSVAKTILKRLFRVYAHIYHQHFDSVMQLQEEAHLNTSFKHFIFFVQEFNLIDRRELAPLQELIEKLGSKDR

[7] = target: B3; assay: SEC; purified full-length MOB1 proteins incubated with NDR2 (25-88), LATS1 (618-697) or MST2 (2-392) at 4 °C for 20 min in assembly buffer (20 mM Tris pH 8.0, 200 mM NaCl, 5 mM DTT); HiLoad 16/60 Superdex 200; fractions by SDS-PAGE and Coomassie; for LATS1 MOB1A was first phosphorylated by MST2 (2-308); conditions: both partners purified
[8] = target: T4, phospho-MOB1(K104E/K105E), full length, …; assay: as above; conditions: both partners purified
[9] = target: T7, human MST2 (residues 2-392) (human, UniProt Q13188 2-392); assay: as above; conditions: both partners purified
T7 construct: human MST2, residues 2-392; also called MST2 (2-392); source: E. coli BL21(DE3), purified (Ni-NTA)
T7 sequence (looked up): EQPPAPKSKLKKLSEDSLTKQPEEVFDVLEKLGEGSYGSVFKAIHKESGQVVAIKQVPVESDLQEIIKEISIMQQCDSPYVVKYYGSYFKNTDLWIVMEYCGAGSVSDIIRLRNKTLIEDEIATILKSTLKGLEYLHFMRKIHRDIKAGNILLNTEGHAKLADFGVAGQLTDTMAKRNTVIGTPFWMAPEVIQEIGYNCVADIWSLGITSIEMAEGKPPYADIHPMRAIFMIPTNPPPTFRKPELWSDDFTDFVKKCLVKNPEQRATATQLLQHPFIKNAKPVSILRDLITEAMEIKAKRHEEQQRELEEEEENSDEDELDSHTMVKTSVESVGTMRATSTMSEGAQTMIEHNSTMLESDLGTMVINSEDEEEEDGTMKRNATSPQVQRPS

Kd [1]: 16.9 µM
Kd [2]: 532 nM
binding result [3]: binds
binding result [4]: binds
binding result [5]: binds
binding result [6]: binds
binding result [7]: binds
B1: human NDR2 (residues 25-88), N-terminal regulatory domain (NTR) (domain or fragment, UniProt Q9Y2H1 25-88, looked up)
chain: KLTLENFYSNLILQHEERETRQKKLEVAMEEEGLADEEKKLRRSQHARKETEFLRLKRTRLGLD
notes: human NDR2, residues 25-88 (NTR); also called NDR2 (25-88); NTR of NDR2; source: E. coli BL21(DE3), purified (Ni-NTA)

binding result [8]: binds
B2: human LATS1 (residues 618-697) (domain or fragment, UniProt O95835 618-697, looked up)
chain: RKNKKDEERRESRIQSYSPQAFKFFMEQHVENVLKSHQQRLHRKKQLENEMMRVGLSQDAQDQMRKMLCQKESNYIRLKR
notes: human LATS1, residues 618-697; also called LATS1 (618-697); source: E. coli BL21(DE3), purified (Ni-NTA)

Binder: B3
binding result [9]: binds
